Experimental data reported in the supplement of paper PMC7125110.
± gives the standard error. This sample holds only a part of the variants without activity.

B1: glmS ribozyme (parent)
chain: AUAAAAGCGCCAGAACUACAGAAAUGUAGUUGACGAGGAGGAGGUUUAUCGAAUUUUCGGCGGAUGCCUCCAAA

Columns and labels:
Conditions in all cases: with glucosamine-6-phosphate
glucosamine-6-phosphate [1] = variants of: B1; experiment: self-cleavage kobs at 40 uM GlcN6P; higher = faster cleavage; RNA array
In short: (§1)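 Barcoded ribozyme variants, transcribed in situ by E. coli RNA polymerase on sequenced MiSeq chips, were followed via a hybridised Cy3 probe at 37 °C. Glucosamine-6-phosphate ranged from 40 μM to 10 mM in HEPES/KCl/Mg(OAc)2 buffer. kobs came from decay fits to per-tile medians, and kcat and KM from weighted Michaelis–Menten fits.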

glucosamine-6-phosphate [2] = variants of: B1; experiment: self-cleavage kobs at 640 uM GlcN6P; higher = faster cleavage; RNA array
In short: as §1

glucosamine-6-phosphate [3] = variants of: B1; experiment: self-cleavage kobs at 10000 uM GlcN6P; higher = faster cleavage; RNA array
In short: as §1

glucosamine-6-phosphate [4] = variants of: B1; experiment: self-cleavage kobs at 160 uM GlcN6P; higher = faster cleavage; RNA array
In short: as §1

glucosamine-6-phosphate [5] = variants of: B1; experiment: self-cleavage kobs at 2500 uM GlcN6P; higher = faster cleavage; RNA array
In short: as §1

Variant	self-cleavage kobs at 40 uM GlcN6P (glucosamine-6-phosphate [1]) [s⁻¹]	self-cleavage kobs at 640 uM GlcN6P (glucosamine-6-phosphate [2]) [s⁻¹]	self-cleavage kobs at 10000 uM GlcN6P (glucosamine-6-phosphate [3]) [s⁻¹]	self-cleavage kobs at 160 uM GlcN6P (glucosamine-6-phosphate [4]) [s⁻¹]	self-cleavage kobs at 2500 uM GlcN6P (glucosamine-6-phosphate [5]) [s⁻¹]
A33G G51U	< 1e-05	< 1e-05	< 1e-05	–	–
G7A A52U A64G C71A	< 1e-05	< 1e-05	–	< 1e-05	< 1e-05
A14U A48C G51C U65G	< 1e-05	–	< 1e-05	–	–
G38A G43U C67U	< 1e-05	–	< 1e-05	–	–
G35A A36U G37U A39G U54C C68U	5.13e-05 ± 2.2e-05	–	–	–	–
A39U C61A U65C	< 1e-05	–	–	–	–
G32A G37A C50G C67U	6.41e-05 ± 2.1e-05	–	–	–	–
U56G C67A	6.65e-05 ± 1.8e-05	0.00102 ± 0.00014	0.00273 ± 0.00081	0.000207 ± 5.3e-05	0.000842 ± 0.00014
A14G G40A A53U	0.000596 ± 0.00013	–	0.0182 ± 0.004	–	–
U46C G63U C70A	< 1e-05	–	–	–	–
A12C A42U A64G	< 1e-05	< 1e-05	–	–	–
A33G A39U	< 1e-05	–	< 1e-05	–	< 1e-05
C8A A53G G63A	< 1e-05	< 1e-05	–	–	–
U47G U56G C61U C67G C70U	0.000123 ± 6.1e-05	0.000281 ± 8.9e-05	4.99e-05 ± 1.9e-05	–	–
U46G A48C	< 1e-05	< 1e-05	–	< 1e-05	–
G29A C34U U47G A48G C67G	0.000265 ± 0.0001	–	7.2e-05 ± 3.2e-05	–	–
C8G U54G	< 1e-05	–	–	–	–
A15G U54A C71A	0.000174 ± 5.4e-05	–	0.00522 ± 0.0014	–	–
A42G G51A A52U	< 1e-05	–	–	–	< 1e-05
C8A U45G U69C C71G	< 1e-05	–	–	–	–
A6C C16A G29A G63C C67A	< 1e-05	–	–	–	–
C16G G41C C68G	< 1e-05	–	< 1e-05	–	–
A12C G32U C71A	< 1e-05	–	–	–	–
C8U A12C C61G	< 1e-05	–	< 1e-05	–	< 1e-05

Variant	self-cleavage kobs at 40 uM GlcN6P (glucosamine-6-phosphate [1]) [s⁻¹]	self-cleavage kobs at 640 uM GlcN6P (glucosamine-6-phosphate [2]) [s⁻¹]	self-cleavage kobs at 10000 uM GlcN6P (glucosamine-6-phosphate [3]) [s⁻¹]	self-cleavage kobs at 160 uM GlcN6P (glucosamine-6-phosphate [4]) [s⁻¹]	self-cleavage kobs at 2500 uM GlcN6P (glucosamine-6-phosphate [5]) [s⁻¹]
A42C G44C	< 1e-05	< 1e-05	< 1e-05	< 1e-05	–
A6G A15U C16U A39G C70U	< 1e-05	< 1e-05	–	–	–
C11A G59C	< 1e-05	< 1e-05	–	< 1e-05	–
U45A U54G	0.00129 ± 0.00023	0.0132 ± 0.0028	0.0501 ± 0.011	0.00383 ± 0.00079	0.0113 ± 0.0021
A33C G51A G60C	< 1e-05	< 1e-05	–	–	–
G29C U31A U46A A53C C71U	< 1e-05	–	–	–	–
C8G G43C	< 1e-05	< 1e-05	< 1e-05	< 1e-05	< 1e-05
G38U U46G G60C	< 1e-05	< 1e-05	–	< 1e-05	< 1e-05
G9C C11A	< 1e-05	–	–	< 1e-05	–
A48U G51U U65G C71U	< 1e-05	–	–	–	< 1e-05
A6U C11U G13A	< 1e-05	–	< 1e-05	–	–
G40U G63C	< 1e-05	< 1e-05	< 1e-05	< 1e-05	< 1e-05
G40U G63A	< 1e-05	< 1e-05	< 1e-05	< 1e-05	< 1e-05
G40U U54A	7.88e-05 ± 1.1e-05	0.000391 ± 5.1e-05	0.0025 ± 0.00054	0.000207 ± 2.7e-05	0.00192 ± 0.00039
A6G C50A U65G	< 1e-05	–	–	–	–
A6C G41C G43A A48G	< 1e-05	–	–	–	–
U30G G59C	< 1e-05	< 1e-05	< 1e-05	–	–
U31C A48G	< 1e-05	–	–	< 1e-05	–
U47C A48U C70U	< 1e-05	3.27e-05 ± 1.2e-05	0.00044 ± 9.8e-05	–	–
U31G A42C C70U	< 1e-05	–	–	–	–
U31G G59C	< 1e-05	< 1e-05	< 1e-05	< 1e-05	–
C16A G40U A48U	< 1e-05	–	< 1e-05	–	–
A14U U56C	5.38e-05 ± 1.8e-05	0.000234 ± 4.8e-05	0.00138 ± 0.00027	–	0.000307 ± 7.6e-05
G35A A64G C70G	< 1e-05	–	< 1e-05	–	–

Variant	self-cleavage kobs at 40 uM GlcN6P (glucosamine-6-phosphate [1]) [s⁻¹]	self-cleavage kobs at 640 uM GlcN6P (glucosamine-6-phosphate [2]) [s⁻¹]	self-cleavage kobs at 10000 uM GlcN6P (glucosamine-6-phosphate [3]) [s⁻¹]	self-cleavage kobs at 160 uM GlcN6P (glucosamine-6-phosphate [4]) [s⁻¹]	self-cleavage kobs at 2500 uM GlcN6P (glucosamine-6-phosphate [5]) [s⁻¹]
G35C G43A	< 1e-05	–	–	< 1e-05	< 1e-05
G7U A42U	< 1e-05	< 1e-05	< 1e-05	–	< 1e-05
G41A C67G C70U	4.65e-05 ± 2e-05	0.000188 ± 5.7e-05	0.00166 ± 0.00038	0.000107 ± 3.4e-05	0.000826 ± 0.00023
U55G U56G G62C	< 1e-05	–	< 1e-05	–	–
U31G G35C	< 1e-05	< 1e-05	–	< 1e-05	< 1e-05
U57G U65G	< 1e-05	–	–	< 1e-05	–
A6G C34A	< 1e-05	< 1e-05	< 1e-05	< 1e-05	< 1e-05
U47A U56C C70G	< 1e-05	–	–	–	–
G7C C67U	< 1e-05	< 1e-05	< 1e-05	< 1e-05	< 1e-05
U31A U65C U69C	< 1e-05	–	–	–	–
C16U G38A	< 1e-05	< 1e-05	–	< 1e-05	< 1e-05
G9A G63A	< 1e-05	< 1e-05	< 1e-05	–	< 1e-05
C11U A14C A36G C50A	< 1e-05	–	< 1e-05	–	–
A42C G59C	< 1e-05	< 1e-05	< 1e-05	< 1e-05	< 1e-05
U47C G66C	< 1e-05	< 1e-05	–	< 1e-05	< 1e-05
C16G C70U	0.000111 ± 1.4e-05	0.000455 ± 8e-05	0.00521 ± 0.001	0.000359 ± 6.2e-05	0.000561 ± 9e-05
G13A U31A A48C C50U G60U C67A	< 1e-05	–	< 1e-05	–	–
A14U U55G C61G	< 1e-05	–	< 1e-05	–	–
A15G A52G G63U	< 1e-05	–	< 1e-05	–	–
C10A U47G G63A	< 1e-05	–	< 1e-05	–	–
U31G G60C C68A	< 1e-05	–	–	–	–
G41U G59U	< 1e-05	< 1e-05	–	< 1e-05	–
C10G C16G G35C A39C	< 1e-05	–	< 1e-05	–	–
C8G U45C G62A	< 1e-05	–	< 1e-05	–	–

Variant	self-cleavage kobs at 40 uM GlcN6P (glucosamine-6-phosphate [1]) [s⁻¹]	self-cleavage kobs at 640 uM GlcN6P (glucosamine-6-phosphate [2]) [s⁻¹]	self-cleavage kobs at 10000 uM GlcN6P (glucosamine-6-phosphate [3]) [s⁻¹]	self-cleavage kobs at 160 uM GlcN6P (glucosamine-6-phosphate [4]) [s⁻¹]	self-cleavage kobs at 2500 uM GlcN6P (glucosamine-6-phosphate [5]) [s⁻¹]
A36G G51U	< 1e-05	< 1e-05	< 1e-05	–	–
U31G G43A C61A C68A	< 1e-05	< 1e-05	–	< 1e-05	< 1e-05
G32C C34U A64G C68G	< 1e-05	–	< 1e-05	–	–
U30G A52C G62U	< 1e-05	–	< 1e-05	–	–
G35C G40A	< 1e-05	< 1e-05	< 1e-05	< 1e-05	< 1e-05
C8G C11G	< 1e-05	–	< 1e-05	< 1e-05	–
U31A U69C	0.000182 ± 6.5e-05	0.000515 ± 0.00012	0.0039 ± 0.0012	0.000243 ± 4.5e-05	–
C8A A53G	< 1e-05	< 1e-05	< 1e-05	< 1e-05	< 1e-05
G40A C50A C70G	< 1e-05	–	–	–	–
C34A U45C	< 1e-05	< 1e-05	< 1e-05	< 1e-05	< 1e-05
A6G G40C	< 1e-05	< 1e-05	–	–	–
A12C A33C C71G	< 1e-05	–	< 1e-05	–	–
A6U G35C C61U	< 1e-05	–	–	–	–
C8A G51U C61U	< 1e-05	< 1e-05	–	< 1e-05	< 1e-05
A6U A33G	< 1e-05	< 1e-05	–	–	–
A14C G60C	< 1e-05	–	< 1e-05	< 1e-05	< 1e-05
G7C C10U A15U U49C	< 1e-05	–	< 1e-05	–	–
U47A G51U	< 1e-05	–	< 1e-05	< 1e-05	–
C34A A39G A64C	< 1e-05	< 1e-05	< 1e-05	–	< 1e-05
A14G G51C A53C	< 1e-05	–	–	–	–
U49A G60C	< 1e-05	< 1e-05	< 1e-05	–	< 1e-05
C11G G13U	< 1e-05	< 1e-05	< 1e-05	< 1e-05	< 1e-05
